Reference: publication PMC9507969, “Visualizing maturation factor extraction from the nascent ribosome by the AAA-ATPase Drg1” (Nature Structural & Molecular Biology, 2022)
Numbering of substitutions follows the chain as printed.

B1: Mrt4 on the pre-60S particle (natural protein, UniProt P33201 1-236, looked up)
chain: MPRSKRSKLVTLAQTDKKGRENKERIFDEVREALDTYRYVWVLHLDDVRTPVLQEIRTSWAGSKLIMGKRKVLQKALGEKREEEYKENLYQLSKLCSGVTGLLFTDEDVNTVKEYFKSYVRSDYSRPNTKAPLTFTIPEGIVYSRGGQIPAEEDVPMIHSLEPTMRNKFEIPTKIKAGKITIDSPYLVCTEGEKLDVRQALILKQFGIAASEFKVKVSAYYDNDSSTVESTNINME
notes: Mrt4 of S. cerevisiae; source: endogenous, on pre-60S particles purified via Bud20-TAP from S. cerevisiae
B2: Rlp24 (ribosomal-like protein 24) on the pre-60S particle (natural protein)
chain: not shown
notes: Ribosomal-like protein 24 (Rlp24) of S. cerevisiae
B3: Drg1 (diazaborine resistance gene 1), wild type, purified (enzyme, S. cerevisiae)
chain: MAPKSSSSGSKKKSSASSNSADAKASKFKLPAEFITRPHPSKDHGKETCTAYIHPNVLSSLEINPGSFCTVGKIGENGILVIARAGDEEVHPVNVITLSTTIRSVGNLILGDRLELKKAQVQPPYATKVTVGSLQGYNILECMEEKVIQKLLDDSGVIMPGMIFQNLKTKAGDESIDVVITDASDDSLPDVSQLDLNMDDMYGGLDNLFYLSPPFIFRKGSTHITFSKETQANRKYNLPEPLSYAAVGGLDKEIESLKSAIEIPLHQPTLFSSFGVSPPRGILLHGPPGTGKTMLLRVVANTSNAHVLTINGPSIVSKYLGETEAALRDIFNEARKYQPSIIFIDEIDSIAPNRANDDSGEVESRVVATLLTLMDGMGAAGKVVVIAATNRPNSVDPALRRPGRFDQEVEIGIPDVDARFDILTKQFSRMSSDRHVLDSEAIKYIASKTHGYVGADLTALCRESVMKTIQRGLGTDANIDKFSLKVTLKDVESAMVDIRPSAMREIFLEMPKVYWSDIGGQEELKTKMKEMIQLPLEASETFARLGISAPKGVLLYGPPGCSKTLTAKALATESGINFLAVKGPEIFNKYVGESERAIREIFRKARSAAPSIIFFDEIDALSPDRDGSSTSAANHVLTSLLNEIDGVEELKGVVIVAATNRPDEIDAALLRPGRLDRHIYVGPPDVNARLEILKKCTKKFNTEESGVDLHELADRTEGYSGAEVVLLCQEAGLAAIMEDLDVAKVELRHFEKAFKGIARGITPEMLSYYEEFALRSGSSS
notes: Drg1 (AFG2), hexameric type-II AAA-ATPase of S. cerevisiae, wild type; Hexamer in the cryo-EM maps; also called DRG1 (AFG2); AAA-ATPase Drg1; source: overexpressed in yeast as GST fusion (CuSO4-induced), purified on GSH-agarose, eluted by Prescission protease cleavage
B4: GST-Arx1 (natural protein, S. cerevisiae)
chain: MALAISHEDTQILLKDKNILQESVLNKYRTAGQIAQTALKYVTSLINDSYHSKTTQRQLTVPELCLLTDSFILTRLEQYYKNKVNERGIAIPTTIDIDQISGGWCPEIDDTQNLLNWNKGKDSTFASSVTGTLRPGDLVKITLGVHIDGYTSEVSHTMVIYPVDETKPILQPTGPLLGGKADAVAAAHIAMETVVALLACALTPEKLPASLGGTSSGITGQLIRTIVDTIARSYNCGVVPGSRVRRIRRFLAGQNEGIVAEREYKGVVWTESHQEADLLSNTDAKDLTVVDRGQSTPFTNVSAIPSDDFVVQSGEVYLIDLKMASLEHCTKKGLVTLETVDSYTGKSHKAGELIARPGAYVRDFAQTHILKLKTSRQLLTKIDKQGVYPFKLSHLSSNFPFVHENEEELQSLKKDLKSFRLGMSEISNNYLCVESPIQIARWVPWDHILKATNPNGNLSYDATSTLTLPGHELPLPKLGVSAIKLKSLMNSTKESISLPVARECNTIVLCDSSVSTTDRPELLRLTGGSKTCQPSWIHSQHELNPQDSIVQGIFQLATLAKDKRFGLLLKETQPMKQKSVETSNGGVEETMKM
notes: Arx1 of S. cerevisiae; not shown: GST, N-terminal, kept

What was measured:
[1] = biological target: T1, Nsa2 on the pre-60S particle (S. cerevisiae (endogenous in the yeast …, UniProt P40078 1-261)); assay: cryo-EM structure; purified Drg1 (1.75 mg/ml, 12 µM) mixed 1:1 with 200 nM export-competent Bud20-TAP pre-60S particles, 2 mM ATPγS, 10 minutes; particle-bound Drg1 and free Drg1 hexamers picked from the same dataset; conditions: both partners purified
T1 construct: Nsa2 of S. cerevisiae; only His20 to Lys74 seen as density; source: endogenous, on pre-60S particles purified via Bud20-TAP from S. cerevisiae
T1 sequence (looked up): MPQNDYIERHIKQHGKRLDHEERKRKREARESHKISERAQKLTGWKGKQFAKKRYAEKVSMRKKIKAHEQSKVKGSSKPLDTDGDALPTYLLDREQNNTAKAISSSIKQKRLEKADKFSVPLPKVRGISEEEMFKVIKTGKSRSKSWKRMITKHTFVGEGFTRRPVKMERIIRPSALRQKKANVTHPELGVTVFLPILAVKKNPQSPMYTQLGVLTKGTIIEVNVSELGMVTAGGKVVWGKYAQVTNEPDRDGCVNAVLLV

[2] = biological target: T2, Nog1 on the pre-60S particle (S. cerevisiae (endogenous in the yeast …, UniProt Q02892 1-647)); assay: as above; conditions: both partners purified
T2 construct: Nog1 of S. cerevisiae; source: endogenous, on pre-60S particles purified from S. cerevisiae via Bud20-TAP (cryo-EM, blots) or Arx1-TAP (cross-linking)
T2 sequence (looked up): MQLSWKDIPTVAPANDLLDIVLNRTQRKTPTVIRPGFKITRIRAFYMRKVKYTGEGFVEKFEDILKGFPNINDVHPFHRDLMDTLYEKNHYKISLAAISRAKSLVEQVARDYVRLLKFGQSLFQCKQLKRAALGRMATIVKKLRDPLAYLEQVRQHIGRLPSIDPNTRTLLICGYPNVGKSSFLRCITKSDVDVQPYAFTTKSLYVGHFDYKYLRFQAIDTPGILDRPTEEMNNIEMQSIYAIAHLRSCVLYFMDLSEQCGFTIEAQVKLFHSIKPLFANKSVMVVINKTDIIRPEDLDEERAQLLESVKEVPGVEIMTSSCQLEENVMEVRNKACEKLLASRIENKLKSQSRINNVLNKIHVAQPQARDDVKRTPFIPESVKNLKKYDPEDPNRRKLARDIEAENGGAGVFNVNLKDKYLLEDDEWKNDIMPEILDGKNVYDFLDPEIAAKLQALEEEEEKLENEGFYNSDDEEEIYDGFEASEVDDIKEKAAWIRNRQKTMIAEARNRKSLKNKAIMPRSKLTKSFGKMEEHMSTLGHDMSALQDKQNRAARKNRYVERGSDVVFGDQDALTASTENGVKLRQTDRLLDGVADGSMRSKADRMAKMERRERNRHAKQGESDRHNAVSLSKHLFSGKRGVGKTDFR

[3] = biological target: the molecule itself; assay: as above
[4] = biological target: export-competent pre-60S particle purified via Bud20-TAP (S. cerevisiae (endogenous in the yeast …, UniProt Q08004 1-166; Q07915 1-199; Q03862 1-593; Q02892 1-647; P38861 1-518; P33201 …, Partial protein list of a heterogeneous ~2.1 MDa endogenous particle: members named in the text plus L2-A, L3 and L4-A from the PDB 7Z34 candidate entities. Tif6 is not named in the text and is inferr); assay: SPR; Biacore X100; pre-60S particles captured through the Protein A moiety of Bud20-TAP on IgG immobilized on a CM3 chip; 25-150 nM Drg1 injected with 1 mM ATPγS; sigmoidal dose-response with variable slope on normalized RU; conditions: both partners purified
[5] = biological target: T3, Drg1EQ1 (E346Q), D1 Walker B variant, purified (S. cerevisiae, UniProt P32794 1-780, E346Q); assay: pull-down; GST-tagged bait on GSH-agarose beads; 80 µg Drg1 in 120 µl binding buffer (20 mM HEPES-KOH, 150 mM potassium acetate, 5 mM magnesium acetate, 0.1% Tween-20, 1 mM DTT, pH 6.8); 1 mM ATP or ATPγS or no nucleotide; 60 minutes, room temperature; conditions: both partners purified
T3 construct: Drg1 (AFG2) of S. cerevisiae with the D1 Walker B exchange E346Q; source: overexpressed in yeast as GST fusion, purified on GSH-agarose, eluted by Prescission protease cleavage
T3 sequence: B3 chain with E346Q

[6] = biological target: B3; assay: as above; conditions: both partners purified

Q: Does B1 bind [1]?
A: Result: binds

Q: Does B2 bind [2]?
A: Result: binds

Q: With B3 as the binder, how does the “stoichiometry N” value [3] read?
A: The value was 6.

Q: And the EC50 [4]?
A: The EC50 was 46 nM.

Q: Does B4 bind [5]?
A: Result: binds

Q: Does B4 bind [6]?
A: Result: binds
